Assay results reported in US20220251222A1 (Johns Hopkins, published 2022).

T1: IL-8RB expressed on lentivirally transduced HEK 293T cells (UniProt P25025 1-360, limits assumed)
T1 construct: whole, on cells; also called IL-8R^+ cells; IL-6Rα^-/IL-8R^+ HEK 293T cells
T1 sequence (looked up): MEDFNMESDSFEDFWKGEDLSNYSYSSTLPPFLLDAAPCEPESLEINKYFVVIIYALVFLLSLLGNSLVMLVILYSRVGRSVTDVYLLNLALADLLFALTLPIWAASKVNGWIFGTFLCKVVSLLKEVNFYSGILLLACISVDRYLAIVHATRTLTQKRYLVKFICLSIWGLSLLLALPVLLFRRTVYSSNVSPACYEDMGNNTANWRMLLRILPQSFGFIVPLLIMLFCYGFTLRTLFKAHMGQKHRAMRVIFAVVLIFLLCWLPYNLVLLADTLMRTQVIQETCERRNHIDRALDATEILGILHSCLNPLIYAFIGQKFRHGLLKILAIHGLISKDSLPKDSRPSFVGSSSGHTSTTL

T2: IL-6Rα expressed on lentivirally transduced HEK 293T cells (UniProt P08887 20-468, limits assumed)
T2 construct: whole, on cells; also called IL-6Rα^+ cells; IL-6Rα^+/IL-8R^- HEK 293T cells
T2 sequence (looked up): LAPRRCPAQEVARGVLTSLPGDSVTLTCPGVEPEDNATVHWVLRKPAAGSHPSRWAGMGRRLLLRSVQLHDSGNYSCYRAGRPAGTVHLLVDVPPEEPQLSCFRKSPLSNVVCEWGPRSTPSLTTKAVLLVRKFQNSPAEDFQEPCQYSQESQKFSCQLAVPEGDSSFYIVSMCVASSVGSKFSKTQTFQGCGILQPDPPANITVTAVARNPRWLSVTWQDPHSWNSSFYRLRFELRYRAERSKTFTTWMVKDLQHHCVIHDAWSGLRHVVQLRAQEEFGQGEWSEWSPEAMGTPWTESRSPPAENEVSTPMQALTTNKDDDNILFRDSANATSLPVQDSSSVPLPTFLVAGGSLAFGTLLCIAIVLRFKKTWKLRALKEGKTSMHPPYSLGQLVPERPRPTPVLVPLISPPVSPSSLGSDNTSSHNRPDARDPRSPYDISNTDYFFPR


Columns and labels:
[1] = target: T1, IL-8RB expressed on lentivirally …; experiment: competition with 400 nM His-tagged IL-8 on IL-6Rα-/IL-8R+ HEK 293T cells, flow cytometry
Protocol: IL-6Rα⁺/IL-8R⁻ and IL-6Rα⁻/IL-8R⁺ HEK 293T cells were cultured as previously described, and were trypsinized, resuspended in PBSA, and aliquoted into 96-well plates (2×10⁵ cells per well). IL-6Rα⁺/IL-8R⁻ 293T cells were incubated with titrations of various monoclonal or bispecific antibodies in the presence of saturating concentration of biotinylated IL-6 (100 nM) (Acro Biosystem, cat #: IL6-H8218-25UG) for 2 hr at 4° C. with rotation. Cells were then washed and incubated with 1:200 dilution of Alexa Fluor 647-conjugated streptavidin (Fisher Scientific, cat #: S21374) in PBSA for 15 min at 4° C. After a final wash, cells were resuspended in PBSA and analyzed on a CytoFLEX flow cytometer (Beckman Coulter). Curves were fitted to a first-order logistic model and IC₅₀ values were calculated using GraphPad Prism data analysis software. Mean fluorescence intensity (MFI) of unstimulated cells was subtracted. Similarly, IL-6Rα⁻/IL-8R⁺ 293T cells were incubated with titrations of various monoclonal or bispecific antibodies with saturating concentration of His-tagged IL-8 (400 nM) (Sino Biological, cat #: 10098-H08Y-100) for 2 hr at 4° C. with rotation. […] After a final wash, cells were resuspended in PBSA and analyzed on a CytoFLEX flow cytometer (Beckman Coulter). Curves were fitted to a first-order logistic model and IC₅₀ values were calculated using GraphPad Prism data analysis software. […]

[2] = target: T1, IL-8RB expressed on lentivirally …; experiment: flow cytometry titration on IL-6Rα-/IL-8R+ HEK 293T cells; IL-6Rα-/IL-8R+ 293T cells (FIG. 7B)
Protocol: (§1) HEK 293T cells were cultured in Dulbecco's modified Eagle's medium (DMEM, Mediatech) supplemented with 10% (Hyclone), 2 mM L-glutamine and 100 U/mL penicillin-streptomycin (Gibco). For surface binding assays, IL-6Rα⁺/IL-8R⁻, IL-6Rα⁻/IL-8R⁺, IL-6Rα⁺/IL-8R⁺, and […] HEK 293T cells were trypsinized for detachment, resuspended in PBSA, and then aliquoted into 96-well plates (1×10⁵ cells per well). Cells were incubated with titrations of various monoclonal or bispecific antibodies for 2 hr at 4° C. with rotation. Cells were then washed and incubated with a 1:50 dilution of fluorescein isothiocyanate (FITC)-conjugated anti-human IgG1 antibody (Sigma-Aldrich, Clone 8c/6-39) in PBSA for 15 min at 4° C. After a final wash, cells were resuspended in PBSA and analyzed on a CytoFLEX flow cytometer (Beckman Coulter). Binding isotherms were fitted to a first-order logistic model and KD values were calculated using GraphPad Prism data analysis software. Mean fluorescence intensity (MFI) of unstimulated cells was subtracted. […]
(§2) To determine whether engineered bispecific binding agents BS1 and BS2 specifically engage target antigens in a physiologically relevant context, antibody binding to IL-6Rα⁺/IL-8R⁻, IL-6Rα⁻/IL-8R⁺, IL-6Rα⁺/IL-8R⁺, and IL-6Rα⁻/IL-8R⁻ lentivirally transduced HEK 293T cells was measured via flow cytometry. […]

[3] = target: T1, IL-8RB expressed on lentivirally …; experiment: flow cytometry binding titration on IL-6R-/IL-8R+ HEK 293T cells, detected with FITC anti-human IgG1
Protocol: as §1, §2

[4] = target: T2, IL-6Rα expressed on lentivirally …; experiment: flow cytometry binding titration on IL-6R+/IL-8R- HEK 293T cells, detected with FITC anti-human IgG1
Protocol: as §1, §2

| Binder | IC50 [1] [nM] | Kd [2] [nM] | binding result [3] | EC50 (read off the curve) [4] [nM] |
| --- | --- | --- | --- | --- |
| BS2 bispecific antibody (scFv-IgG fusion: 10H2 IgG with tocilizumab scFv on the light chains) (bispecific antibody, Human IgG1-based) heavy: not shown light: AGSQAVVTQESALTTSPGETVTLTCRSSTGAVTTSNYANWVQEKPDHLFTGLIGGTNNRPPGVPARFSGSLIGDKAALTITGAQIEDEAIYFCALWYSNHLVFGGGTKLTVLRTVAAPSVFIFPPSDEQLKSGTASVVCLLNNFYPREAKVQWKVDNALQSGNSQESVTEQDSKDSTYSLSSTLTLSKADYEKHKVYACEVTHQGLSSPVTKSFNRGECGGGGSGGGGSEVQLQESGPGLVRPSQTLSLTCTVSGYSITSDHAWSWVRQPPGRGLEWIGYISYSGITTYNPSLKSRVTMLRDTSKNQFSLRLSSVTAADTAVYYCARSLARTTAMDYWGQGSLVTVSSGGGGSGGGGSGGGGSDIQMTQSPSSLSASVGDRVTITCRASQDISSYLNWYQQKPGKAPKLLIYYTSRLHSGVPSRFSGSGSGTDFTFTISSLQPEDIATYYCQQGNTLPYTFGQGTKVEIK | 22 | 3.5 | – | – |
| tocilizumab, recombinant monoclonal hIgG1 (anti-IL-6Rα) (antibody, V domains shown, also called anti-IL-6Rα antibody) VH: EVQLQESGPGLVRPSQTLSLTCTVSGYSITSDHAWSWVRQPPGRGLEWIGYISYSGITTYNPSLKSRVTMLRDTSKNQFSLRLSSVTAADTAVYYCARSLARTTAMDYWGQGSLVTVSS VL: DIQMTQSPSSLSASVGDRVTITCRASQDISSYLNWYQQKPGKAPKLLIYYTSRLHSGVPSRFSGSGSGTDFTFTISSLQPEDIATYYCQQGNTLPYTFGQGTKVEIK | – | – | no binding (tested: 1e-6 M) | ~3 |
